Laboratory results taken from article PMC3926522.

Columns and labels:
thrombin [1] = biological target: T1, thrombin (human, UniProt P00734;P00734 315-363;364-622); experiment: whispering gallery mode microsphere resonator
thrombin [2] = biological target: T1, thrombin; experiment: whispering gallery mode microsphere resonator; remark: listed apart in the source

| Binder | binding result (thrombin [1]) | Kd (thrombin [2]) |
| --- | --- | --- |
| TATGAATTCAATCCGTCGAGCAGAGTT (ssDNA, 5' amino) [non-thrombin (non-aptamer) oligonucleotide] | no binding |  |
| CCAACCCAACGGTTGGTGTGGTTGG (structured_DNA, 5' amino) [anti-thrombin aptamer oligonucleotide] |  | ~1000 nM |
